Data reported in patent US6989369B2, “Kunitz domain peptides” (Dyax Corp., priority 2003, dated 2006).
Positions of bridges follow the written chain, without caps; N, C: chain ends. No end group written: not given here.

Legend:
[1] = biological target: T1, HNE (Homo sapiens, UniProt P08246); test: HNE-neutralizing activity expected for doubly fused protein; type: biochemical; conditions: expected value, protein not tested
T1 sequence (P08246 30-267): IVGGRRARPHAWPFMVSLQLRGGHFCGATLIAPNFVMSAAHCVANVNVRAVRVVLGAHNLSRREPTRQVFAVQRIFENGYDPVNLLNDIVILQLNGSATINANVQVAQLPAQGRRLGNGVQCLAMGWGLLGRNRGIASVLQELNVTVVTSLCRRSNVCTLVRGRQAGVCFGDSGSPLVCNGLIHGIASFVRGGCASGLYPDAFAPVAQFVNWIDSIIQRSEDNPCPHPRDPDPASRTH

[2] = rabbit
[3] = Clinical testing of DX-88 for hereditary angioedema (HAE); type: in vivo, human; conditions: treatment of hereditary angioedema, initial data
[4] = about 840 mg, 80 open-heart surgery patients; cited from earlier work
[5] = after 8 days of treatment; cited from earlier work

**Q.** Which “HNE-neutralizing activity relative to DX890” value [1] does the source give for “Dx890-HA-Dx890: albumin fused at both termini to DX-890 via (GGS)4GG linkers; SEQ ID No.: 75” here?
**A.** Its value is about 16%.

**Q.** Which results are given for “EACNLPIVRGPCIAFFPRWAFDAVKGKCVLFPYGGCQGNGNKFYSEKECREYCGVP (disulfide 3-53, 12-36, 28-49) [DX-890]”?
**A.** in vivo stability, SEC analysis of plasma [2]: relatively rapid association of label with higher molecular weight plasma components; % α ([2]; in vivo): 75%; % β ([2]; in vivo): 25%; Clearance Times T1/2α ([2]; in vivo): 24 s

**Q.** Which “safety and efficacy in the clinic” value [3] does the source give for “DX-88: Kunitz domain derived from the first Kunitz domain of human LACI, inhibits human plasma kallikrein; SEQ ID No.: 48 (EAMHSFCAFKADDGPCRAAHPRWFFNIFTRQCEEFIYGGCEGNQNRFESLEECKKMCTRD; DX-88 Kunitz domain peptide)” here?
**A.** Its value is “safe and effective”.

**Q.** Which “decrease of mean amount transfused” value [4] does the source give for “bovine pancreatic trypsin inhibitor [BPTI]” here?
**A.** Its value is 74%.

**Q.** And the “reduction of blood loss” value [4]?
**A.** Its value is “almost half”.

B1: Pulmozyme: a recombinant human deoxyribonuclease which reduces mucus viscoelasticity by hydrolyzing DNA in sputum (protein, UniProt P24855 23-282, looked up)
Deoxyribonuclease-1: LKIAAFNIQTFGETKMSNATLVSYIVQILSRYDIALVQEVRDSHLTAVGKLLDNLNQDAPDTYHYVVSEPLGRNSYKERYLFVYRPDQVSAVDSYYYDDGCEPCGNDTFNREPAIVRFFSRFTEVREFAIVPLHAAPGDAVAEIDALYDVYLDVQEKWGLEDVMLMGDFNAGCSYVRPSQWSSIRLWTSPTFQWLIPDSADTTATPTHCAYDRIVVAGMLLRGAVVPDSALPFNFQAAYGLSDQLAQAISDHYPVEVMLK
**Q.** For B1, which “effect on pulmonary function” value [5] is on record?
**A.** The value was “increase FEV1 and FVC”.
